{"source": "patent US5686070A", "about": "“Methods for treating bacterial pneumonia” (Genentech, Inc., priority 1995, dated 1997)", "key": {"Human IL-8 [1]": {"test_system": "Human IL-8", "experiment": "Human IL-8 mediated neutrophil chemotaxis, 96-well chamber, calcein AM-labeled neutrophils", "assay_type": "cell-based", "description": "Human neutrophils were isolated, counted and resuspended at 5×10^6 cells/ml in Hank's balanced salt solution (abbreviated HBSS; without calcium and magnesium) with 0.1% bovine serum albumin. The neutrophils were labeled by adding calcein AM (Molecular Probe, Eugene, Oreg.) at a final concentration of 2.0 μM. Following a 30 minute incubation at 37° C., cells were washed twice with HBSS-BSA and resuspended at 5×10^6 cells/ml.\nChemotaxis experiments were carried out in a Neuro Probe (Cabin John, Md.) 96-well chamber, model MBB96. Experimental samples (buffer only control, IL-8 alone or IL-8 +Fabs) were loaded in a Polyfiltronics 96-well View plate (Neuro Probe Inc.) placed in the lower chamber. […]\nThe relative number of neutrophils migrating through the filter (Neutrophil migration index) was determined by measuring fluorescence intensity of the filter and the fluorescence intensity of the contents of the lower chamber and adding the two values together. Fluorescence intensity was measured with a CytoFluor 2300 fluorescent plate reader (Millipore Corp. Bedford, Mass.) configured to read a Corning 96-well plate using the 485-20 nm excitation filter and a 530-25 emission filter, with the sensitivity set at 3."}, "Human IL-8 [2]": {"test_system": "Human IL-8", "experiment": "IL-8 mediated release of elastase by neutrophils (mAb 5.12.14)", "assay_type": "cell-based", "conditions": "1:1 ratio of IL-8 to mAb", "description": "One of the antibodies, mAb 5.12.14, was further studied to determine whether it could block the IL-8 mediated release of elastase by neutrophils. Briefly, human neutrophils were resuspended in Hanks balanced salt solution (Gibco, Grand Island, N.Y.) containing 1.0% BSA, Fraction V (Sigma, St. Louis, Mo.), 2 mg/ml alpha-D-glucose (Sigma), 4.2 mM sodium bicarbonate (Sigma) and 0.01M HEPES, pH 7.1 (JRH Bioscience, Lenexa, Kans.). A stock of cytochalasin B (Sigma) was prepared (5 mg/ml in dimethylsulfoxide (Sigma) and stored at 2°-8° C. Cytochalasin B was added to the neutrophil preparation to produce a final concentration of 5 μg/ml, and incubated for 15 min at 37° C. Human IL-8 was incubated with mAb 5.12.14 (20 μl), or a negative control antibody, in 1 ml polypropylene tubes (DBM Scientific, San Fernando, Calif.) for 30 min at 37° C. The final assay concentrations of IL-8 were 50 and 500 nM. The monoclonal antibodies were diluted to produce the following ratios (IL-8:Mab): 1:50, 1:10, 1:2, 1:1, and 1:0.25. Cytochalasin B-treated neutrophils were added (100 μl/tube) and incubated for 2 hours at 25° C. The tubes were centrifuged (210×g, 2°-8° C.) for 10 min, and supernatants were transferred to 96 well tissue culture plates (30 μl/well). […] Absorbance was measured at 405 nm (SLT 340 ATTC plate reader, SLT Lab Instruments, Austria)."}, "[3]": {"experiment": "Isoelectric focusing (IEF) pattern", "assay_type": "physicochemical", "conditions": "IEF polyacrylamide gel pH 3-9", "description": "The isoelectric focusing (IEF) pattern of each mAb was determined by applying purified antibodies on an IEF polyacrylamide gel (pH 3-9, Pharmacia) using the Fast gel system (Pharmacia, Piscataway, N.J.). The IEF gel was pretreated with pharmalyte containing 1% Triton X100 (Sigma, St. Louis, Mo.) for 10 min before loading the samples. The IEF pattern was visualized by silver staining according to the instructions from the manufacturer. All of the monoclonal antibodies had different IEF patterns, confirming that they originated from different clones."}, "IL-8 [4]": {"test_system": "IL-8", "experiment": "Competitive binding ELISA (epitopes), biotinylated mAb vs unlabeled mAb", "parameters": "species or system human", "conditions": "ratio of biotinylated mAb to unlabeled mAb 1:100", "description": "To assess whether these monoclonal antibodies bound to the same epitopes, a competitive binding ELISA was performed. […] Thus, mAb 4.1.3 and mAb 5.2.3 bind to a different epitope(s) than the epitope recognized by monoclonal antibodies 12.3.9, 4.8 and 5.12.14."}, "IL-8 [5]": {"test_system": "IL-8", "experiment": "Neutrophil chemotaxis induced by IL-8, Boyden chamber method", "assay_type": "cell-based, human", "conditions": "1:10 ratio of IL-8 to mAb; IL-8 20 nM", "description": "The ability of the anti-IL-8 antibodies to block neutrophil chemotaxis induced by IL-8 was tested as follows. Neutrophil chemotaxis induced by IL-8 was determined using a Boyden chamber method (Larsen, et al., Science 243:1464 (1989)). One hundred μl of human neutrophils (10^6 cells/ml) resuspended in RPMI containing 0.1% BSA were placed in the upper chamber and 29 μl of the IL-8 (20 nM) with or without monoclonal antibodies were placed in the lower chamber. Cells were incubated for 1 hr at 37° C. Neutrophils migrated into the lower chamber were stained with Wright's Giemsa stain and counted under the microscope (100×magnification). Approximately 10 different fields per experimental group were examined. Neutralizing monoclonal antibodies 5.12.14 and 4.1.3 blocked almost 70% of the neutrophil chemotactic activity of IL-8 at 1:10 ratio of IL-8 to mAb."}, "IL-8 [6]": {"test_system": "IL-8", "experiment": "Receptor binding assay: 125I-IL-8 bound to human neutrophils in presence of mAbs", "conditions": "1:25 molar ratio of IL-8 to mAb", "description": "To assess the ability of these monoclonal antibodies to neutralize IL-8 activity, the amount of ^125 I-IL-8 bound to human neutrophils in the presence of various amounts of culture supernatants and purified monoclonal antibodies was measured. Neutrophils were prepared by using Mono-Poly Resolving Medium (M-PRM) (Flow Lab. Inc., McLean, Va). Briefly fresh, heparinized human blood was loaded onto M-PRM at a ratio of blood to medium, 3.5:3.0, and centrifuged at 300×g for 30 min at room temperature. Neutrophils enriched at the middle layer were collected and washed once in PBS. Such a preparation routinely contained greater than 95% neutrophils according to the Wright's Giemsa staining. The receptor binding assay was done as follows. 50 μl of ^125 I-IL-8 (5 ng/ml) was incubated with 50 μl of unlabeled IL-8 (100 μg/ml) or monoclonal antibodies in PBS containing 0.1% BSA for 30 min at room temperature. The mixture was then incubated with 100 μl of neutrophils (10^7 cells/ml) for 15 min at 37° C. The ^125 I-IL-8 bound was separated from the unbound material by loading mixtures onto 0.4 ml of PBS containing 20% sucrose and 0.1% BSA and by centrifugation at 300×g for 15 min. The supernatant was removed by aspiration and the radioactivity associated with the pellet was counted in a gamma counter."}, "IL-8 [7]": {"test_system": "IL-8", "experiment": "Radioimmune precipitation test (RIP): capture of soluble 125I-IL-8", "assay_type": "binding, human", "description": "The ability of these monoclonal antibodies to capture soluble ^125 I-IL-8 was assessed by a radioimmune precipitation test (RIP). Briefly, tracer ^125 I-IL-8 (4×10^4 cpm) was incubated with various dilutions of the monoclonal anti-IL-8 antibodies in 0.2 ml of PBS containing 0.5% BSA and 0.05% Tween 20 (assay buffer) for 1 hr at room temperature. One hundred microliters of a predetermined concentration of goat anti-mouse Ig antisera (Pel-Freez, Rogers, Ariz.) were added and the mixture was incubated at room temperature for 1 hr. Immune complexes were precipitated by the addition of 0.5 ml of 6% polyethylene glycol (M.W. 8000) kept at 4° C. After centrifugation at 2,000×g for 20 min at 4° C., the supernatant was removed by aspiration and the radioactivity remaining in the pellet was counted in a gamma counter. Percent specific binding was calculated as (precipitated cpm--background cpm)/(total cpm--background cpm)."}, "[8]": {"molecular_target": "T1, recombinant human IL-8, (ser-IL-8)72 (human, UniProt P10145)", "experiment": "competitive binding RIP with unlabeled IL-8, Scatchard analysis"}, "[9]": {"molecular_target": "T1, recombinant human IL-8, (ser-IL-8)72"}}}
{"molecule": "6G.4.25 Fab (antibody) heavy: EIQLQQSGPELMKPGASVKISCKASGYSFSSHYMHWVKQSHGKSLEWIGYIDPSNGETTYNQKFKGKATLTVDTSSSTANVHLSSLTSDDSAVYFCARGDYRYNGDWFFDVWGAGTTVTVSSASTKGPSVFPLAPSSKSTSGGTAALGCLVKDYFPEPVTVSWNSGALTSGVHTFPAVLQSSGLYSLSSVVTVPSSSLGTQTYICNVNHKPSNTKVDKKVEPKSCDKTHT light: DIVMTQTPLSLPVSLGDQASISCRSSQSLVHGIGNTYLHWYLQKPGQSPKLLIYKVSNRFSGVPDRFSGSGSGTDFTLRISRVEAEDLGLYFCSQSTHVPLTFGAGTKLELKRAVAAPTVFIFPPSSEQLKSGTASVVCLLNNFYPREAKVQWKVDNALQSGNSQESVTEQDSKDSTYSLSSTLTLSKADYEKHKVYACEVTHQGLSSPVTKSFNRGEC", "values": [{"measurement": "inhibition of human IL-8 mediated neutrophil chemotaxis", "setting": "Human IL-8 [1]", "result": "inhibition"}]}
{"molecule": "mAb 5.12.14: murine monoclonal antibody against human IL-8, isotype IgG2a, hybridoma ATCC HB 11553 (antibody, V domains shown) VH: ASGFIFSSYGMSWVRQTPGKSLELVATINNNGDSTYYPDSVKGRFTISRDNAKNTLYLQMSSLKSEDTAMFYCARALISSATWFGYWGQGTLVTVSAAKTTAPSVYP VL: KASQNVGTNVAWYQQKPGQSPKALIYSSSYRYSGVPDRFTGSGSGTDFTLTISHVQSEDLADYFCQQYNIYPLTFGPGTKLELKRADAAPPTVSIFPPFE", "values": [{"measurement": "block of release of elastase from neutrophils", "setting": "Human IL-8 [2]", "result": "effectively block"}, {"measurement": "pI", "setting": "[3]", "result": "6.2-7.4"}, {"measurement": "inhibition of binding of biotinylated mAb 4.1.3 by unlabeled mAb", "setting": "IL-8 [4]", "result": "not by mAb 5.12.14"}, {"measurement": "inhibition of binding of biotinylated mAb 5.12.14 by unlabeled mAb", "setting": "IL-8 [4]", "result": "significantly inhibited"}, {"measurement": "block of the neutrophil chemotactic activity of IL-8", "setting": "IL-8 [5]", "result": "~70", "unit": "%"}, {"measurement": "inhibition of the binding of IL-8 to human neutrophils", "setting": "IL-8 [6]", "result": "greater than 85%"}, {"measurement": "capture of soluble 125I-IL-8 in the RIP", "setting": "IL-8 [7]", "result": "very efficiently"}, {"measurement": "% Specific Binding to IL-8", "setting": "IL-8 [7]; RIP, soluble 125I-IL-8", "result": 98, "unit": "%"}]}
{"molecule": "5.12.14 Fab (antibody) heavy: EVQLVESGGGLVPPGGSLKLSCAASGFIFSSYGMSWVRQTPGKSLELVATINNNGDSTYYPDSVKGRFTISRDNAKNTLYLQMSSLKSEDTAMFYCARALISSATWFGYWGQGTLVTVSAASTKGPSVFPLAPSSKSTSGGTAALGCLVKDYFPEPVTVSWNSGALTSGVHTFPAVLQSSGLYSLSSVVTVPSSSLGTQTYICNVNHKPSNTKVDKKVEPKSCDKTHT light: KASQNVGTNVAWYQQKPGQSPKALIYSSSYRYSGVPDRFTGSGSGTDFTLTISHVQSEDLADYFCQQYNIYPLTFGPGTKLELKRADAAPPTVSIFPPFE", "values": [{"measurement": "inhibition of human IL-8 mediated neutrophil chemotaxis", "setting": "Human IL-8 [1]", "result": "inhibition"}]}
{"molecule": "anti-IL-8 monoclonal antibody 5.12.14 (antibody, V domains shown) VH: EVQLVESGGGLVPPGGSLKLSCAASGFIFSSYGMSWVRQTPGKSLELVATINNNGDSTYYPDSVKGRFTISRDNAKNTLYLQMSSLKSEDTAMFYCARALISSATWFGYWGQGTLVTVSA VL: DIVMTQSQKFMSTSVGDRVSVTCKASQNVGTNVAWYQQKPGQSPKALIYSSSYRYSGVPDRFTGSGSGTDFTLTISHVQSEDLADYFCQQYNIYPLTFGPGTKLELKR", "values": [{"measurement": "Kd", "setting": "[8]", "result": 0.3, "unit": "nM"}, {"measurement": "neutrophil chemotaxis induced by IL-8 (Boyden chamber)", "setting": "[9]", "result": 70, "unit": "%"}]}
